Reference: paper PMC8902225

Experiments:
[1] = molecular target: equine follicle-stimulating hormone receptor A306T (equine) (UniProt P47799)
[2] = molecular target: equine follicle-stimulating hormone receptor D566G (equine) (UniProt P47799)
[3] = molecular target: wild-type equine follicle-stimulating hormone receptor (equine) (UniProt P47799)
[4] = molecular target: equine follicle-stimulating hormone receptor N191I (equine) (UniProt P47799)
[5] = molecular target: equine follicle-stimulating hormone receptor R633H (equine) (UniProt P47799)
Sequence of equine follicle-stimulating hormone receptor R633H (equine) (P47799 18-694 R633H): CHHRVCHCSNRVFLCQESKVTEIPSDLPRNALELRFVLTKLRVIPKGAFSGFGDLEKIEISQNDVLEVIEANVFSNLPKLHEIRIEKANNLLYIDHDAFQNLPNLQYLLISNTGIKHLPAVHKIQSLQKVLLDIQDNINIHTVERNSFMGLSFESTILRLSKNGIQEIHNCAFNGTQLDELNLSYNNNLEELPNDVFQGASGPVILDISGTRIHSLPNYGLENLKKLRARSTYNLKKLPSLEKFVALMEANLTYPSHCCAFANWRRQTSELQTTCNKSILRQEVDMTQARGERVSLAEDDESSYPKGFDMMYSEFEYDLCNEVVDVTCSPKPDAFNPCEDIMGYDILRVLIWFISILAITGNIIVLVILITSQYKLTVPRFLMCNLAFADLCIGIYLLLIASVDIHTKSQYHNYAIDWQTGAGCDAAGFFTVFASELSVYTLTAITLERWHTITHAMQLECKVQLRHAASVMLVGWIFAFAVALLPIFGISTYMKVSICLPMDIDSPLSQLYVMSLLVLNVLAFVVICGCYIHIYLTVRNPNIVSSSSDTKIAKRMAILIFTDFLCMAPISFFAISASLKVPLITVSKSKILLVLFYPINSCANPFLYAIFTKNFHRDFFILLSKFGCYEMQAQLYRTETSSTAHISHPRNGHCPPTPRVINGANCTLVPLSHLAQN

[6] = molecular target: wild-type equine follicle-stimulating hormone receptor (equine) (UniProt P47799); remark: listed apart in the source

Sequence of Human FSH (follicle-stimulating hormone) (P01215 25-116): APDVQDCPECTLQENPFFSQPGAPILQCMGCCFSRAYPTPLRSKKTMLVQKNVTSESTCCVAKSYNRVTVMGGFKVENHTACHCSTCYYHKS
Sequence of Human FSH (follicle-stimulating hormone) (P01225 19-129): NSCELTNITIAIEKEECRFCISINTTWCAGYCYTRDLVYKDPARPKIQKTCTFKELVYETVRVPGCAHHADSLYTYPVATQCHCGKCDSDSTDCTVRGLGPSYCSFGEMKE
Sequence of wild-type equine follicle-stimulating hormone receptor (equine) (P47799 18-694): as the sequence (P47799 18-694 R633H) above, with H616R counted along it
Sequence of equine follicle-stimulating hormone receptor N191I (equine) (P47799 18-694 N191I): as the sequence (P47799 18-694 R633H) above, with N174I, H616R counted along it
Sequence of equine follicle-stimulating hormone receptor D566G (equine) (P47799 18-694 D566G): as the sequence (P47799 18-694 R633H) above, with D549G, H616R counted along it
Sequence of equine follicle-stimulating hormone receptor A306T (equine) (P47799 18-694 A306T): as the sequence (P47799 18-694 R633H) above, with A289T, H616R counted along it

EC50 of FSH-stimulated cAMP accumulation (HTRF) in transfected PathHunter EA-parental CHO-K1 cells [1]: 0.751 µg/mL
EC50 of FSH-stimulated cAMP accumulation (HTRF) in transfected PathHunter EA-parental CHO-K1 cells [2]: 0.648 µg/mL
EC50 of FSH-stimulated cAMP accumulation (HTRF) in transfected PathHunter EA-parental CHO-K1 cells [3]: 0.765 µg/mL
EC50 of FSH-stimulated cAMP accumulation (HTRF) in transfected PathHunter EA-parental CHO-K1 cells [4]: 3.91 µg/mL
EC50 of FSH-stimulated cAMP accumulation (HTRF) in transfected PathHunter EA-parental CHO-K1 cells [5]: 1.16 µg/mL
EC50 of FSH-stimulated cAMP accumulation (HTRF) in transfected PathHunter EA-parental CHO-K1 cells (series with the inactivating mutants) [6]: 0.718 µg/mL
Substance: Human FSH (follicle-stimulating hormone) (from UniProt P01215 25-116; P01225 19-129) (ligand)
